{"source": "patent US7439329B2", "about": "“GEF-H1b: biomarkers, complexes assays and therapeutic uses thereof” (Sugen, Inc., priority 2002, dated 2008)", "format_in_all_cases": "cell-based, mouse", "key": {"NIH-3T3 cells [1]": {"tested_on": "NIH-3T3 cells", "experiment": "Morphology and localization in transfected NIH-3T3 cells (EGFP fluorescence, F-actin and microtubule staining)", "protocol": "To analyse the effect of GEF-H1 on cell morphology in fibroblasts, EGFP (enhanced green fluorescent protein) fusion constructs of GEF-H1S and a series of mutant alleles of the PAK4 phosphorylation sites in GEF-H1S were introduced into NIH-3T3 cells. Also constructed, was a dominant negative allele by mutating the DH domain of GEF-H1 resulting in GEF-H-QR312,313MG. In a p21-binding domain (PBD) assay this dominant-negative allele inhibited accumulation of Rac-GTP but not Cdc42-GTP in NIH-3T3 cells. The actin cytoskeleton was stained with coumarin-phallicidin to contrast F-actin structures of EGFP fluorescing cells by microscopy.\nInduction of F-actin structures in fibroblasts, namely the formation of filopodia, lamellipodia, and stress fibres is due to signalling by the active forms of Cdc42, Rac, and Rho, respectively. Because PAK proteins and specifically PAK4 play a role in regulating F-actin based morphological structures, experiments were devised to determine whether PAK4-induced changes in cell morphology were mediated by regulation of GEF-H1S. Also co-expressed were EGFP-GEF-H1 constructs with various HA epitope-tagged PAK4 alleles in NIH-3T3 cells. Exogenous PAK4 was detected with an anti-HA antibody (red) and the actin cytoskeleton was stained with coumarin-phallicidin (blue). Although NIH-3T3 cells have low but detectable levels of endogenous PAK4 and GEF-H1 these were not activated under the conditions of the experiment.\nResidues phosphorylated by PAK4 in GEF-H1S are conserved in the MT (“microtubule”) bound form of GEF-H1, “GEF-H1M.” GEF-H1M contains a zinc finger domain in its amino terminus that allows it to bind to microtubules. The role microtubule binding in determining the ability of PAK4 to control GEF-H1M activity was investigated. Studies were performed with GEF-H1M that allowed simultaneous examination of both MT (through EGFP-GEF-H1M labelling of MTs in vivo) and actin cytoskeleton (through F-actin staining with coumarin-phallicidin). Also studied, were changes in the MT cytoskeleton by co-staining with β-tubulin antibodies.\nGEF-H1S alleles were transiently expressed in NIH-3T3 cells or simultaneously expressed with PAK4 alleles. The GEF-H1S alleles were retrieved from the pcDNA vector by restriction with EcoR1 and Xho1 and inserted into pEGFP-C1 (Clontech,USA Cat#6082-1) restricted with EcoR1 and Sal1. The resulting protein was a hybrid of the brightly fluorescent protein, green fluorescent protein (GFP). The effects on cell morphology were traced by staining of F-actin with coumarin phallacidin (Molecular Probes, USA, Cat. # C-606). […] See, Callow et al., 2002. This finding was consistent with GEF-H1S being a substrate for PAK4, because activated PAK4 is also localized to the Golgi apparatus.\nNIH-3T3, 293T, A549, HCT116 and H1299 cells were maintained in Dulbecco's modified Eagles medium (DMEM) 10% Fetal Bovine serum (FBS), penicillin and streptomycin from Invitrogen (Carlsbad, Calif.). For transfection, cells were seeded at 10^5 cells ml-1 for NIH-3T3 and […] for both 293T and H1299 unless otherwise stated. Transfection reagents Lipofectamine 2000 (Invitrogen) or Fugene (Roche Molecular) were used at […] of plasmid DNA. Cellular extracts for immunoblotting were prepared in lysis buffer. For immunoprecipitation experiments lysates were incubated with Protein G beads (Pharmacia) linked with appropriate antibody, glutathione sepharose beads (Pharmacia) with appropriate GST fusion protein and streptavidin beads (Pierce) linked to appropriate biotinylated peptides. For immunofluorescence, coverslips were placed in 24 well cell culture vessels and seeded at the densities above. Transfections took place after 16 h and unless otherwise stated were maintained in Optimem or DMEM with 0.2% FBS for 24 h until fixation. Microscopy was performed on a Nikon E800 microscope with 60× objective (1.5NA). […]"}, "NIH-3T3 cells [2]": {"tested_on": "NIH-3T3 cells", "experiment": "Anchorage independent survival and proliferation (XTT assay)", "conditions": "over-expression in NIH-3T3; vessels which prevent adherence", "protocol": "A stably expressing clone designated 192.58 containing GEF-H1S was established in the mouse fibroblast cell line, NIH-3T3. The pRSV/Rc subcloned vector expresses the GEF-H1S protein in tissue culture cells.\nThe GEF-H1S clones were plated in tissue culture vessels which prevent adherence. […] The ability for cells to proliferate was measured using the tetrazolium salt XTT based assay (Roche Molecular Biochemicals Cat# 1465015) which measured only metabolically active cells in culture. Measurements were made over a time course."}, "NIH-3T3 cells [3]": {"tested_on": "NIH-3T3 cells", "experiment": "In vitro transformation (foci) assay"}, "[4]": {"conditions": "GEF-H1 allele alone, majority of transfected cells"}, "[5]": {"conditions": "co-expressed with PAK4 allele PAK4"}, "[6]": {"conditions": "co-expressed with PAK4 allele PAK4K350,351A"}, "[7]": {"conditions": "co-expressed with PAK4 allele PAK4S474E"}}, "data": [{"molecule": "GEF-H1S: novel GEF-H1 splice isoform, residues 1-921, lacking N-terminal zinc finger domain (SEQ ID NO. 2) (protein) MPVTRASQPRKPSSAQQQKAALLKNNTALQSVSLRSKTTIRERPSSAIYPSDSFRQSLLGSRRGRSSLSLAKSVSTTNIAGHFNDESPLGLRRILSQSTDSLNMRNRTLSVESLIDEAEVIYSELMSDFEMDEKDFAADSWSLAVDSSFLQQHKKEVMKQQDVIYELIQTELHHVRTLKIMTRLFRTGMLEELHLEPGVVQGLFPCVDELSDIHTRFLSQLLERRRQALCPGSTRNFVIHRLGDLLISQFSGPSAEQMCKTYSEFCSRHSKALKLYKELYARDKRFQQFIRKVTRPAVLKRHGVQECILLVTQRITKYPLLISRILQHSHGIEEERQDLTTALGLVKELLSNVDEGIYQLEKGARLQEIYNRMDPRAQTPVPGKGPFGREELLRRKLIHDGCLLWKTATGRFKDVLVLLMTDVLVFLQEKDQKYIFPTLDKPSVVSLQNLIVRDIANQEKGMFLISAAPPEMYEVHTASRDDRSTWIRVIQQSVRTCPSREDFPLIETEDEAYLRRIKMELQQKDRALVELLREKVGLFAEMTHFQAEEDGGSGMALPTLPRGLFRSESLESPRGERLLQDAIREVEGLKDLLVGPGVELLLTPREPALPLEPDSGGNTSPGVTANGEARTFNGSIELCRADSDSSQRDRNGNQLRSPQEEALQRLVNLYGLLHGLQAAVAQQDTLMEARFPEGPERREKLCRANSRDGEAGRAGAAPVAPEKQATELALLQRQHALLQEELRRCRRLGEERATEAGSLEARLRESEQARALLEREAEEARRQLAALGQTEPLPAEAPWARRPVDPRRRSLPAGDALYLSFNPPQPSRGTDRLDLPVTTRSVHRNFEDRERQELGSPEERLQDSSDPDTGSEEEGSSRLSPPHSPRGETLAETWTRDFTRMQDIPEETESRDGEAVASES", "values": [{"measurement": "F-actin", "setting": "NIH-3T3 cells [1]; [4]", "result": "occassional stress fibers"}, {"measurement": "Microtubule", "setting": "NIH-3T3 cells [1]; [4]", "result": "radial array"}, {"measurement": "cell morphology", "setting": "NIH-3T3 cells [1]; [4]", "result": "polarized"}, {"measurement": "subcellular localization", "setting": "NIH-3T3 cells [1]; GFP fusion transiently expressed in NIH-3T3 cells", "result": "localized at the perinuclear region of the Golgi apparatus"}, {"measurement": "F-actin", "setting": "NIH-3T3 cells [1]; [5]", "result": "extreme filopodia"}, {"measurement": "Microtubule", "setting": "NIH-3T3 cells [1]; [5]", "result": "radial array"}, {"measurement": "cell morphology", "setting": "NIH-3T3 cells [1]; [5]", "result": "contracted"}, {"measurement": "F-actin", "setting": "NIH-3T3 cells [1]; [6]", "result": "stress fibers"}, {"measurement": "Microtubule", "setting": "NIH-3T3 cells [1]; [6]", "result": "radial array"}, {"measurement": "cell morphology", "setting": "NIH-3T3 cells [1]; [6]", "result": "elongated"}, {"measurement": "F-actin", "setting": "NIH-3T3 cells [1]; [7]", "result": "peripheral lammellipodia"}, {"measurement": "Microtubule", "setting": "NIH-3T3 cells [1]; [7]", "result": "disorganized"}, {"measurement": "cell morphology", "setting": "NIH-3T3 cells [1]; [7]", "result": "polarized"}, {"measurement": "anchorage independent survival and proliferation", "setting": "NIH-3T3 cells [2]", "result": "anchorage independent"}, {"measurement": "foci induction", "setting": "NIH-3T3 cells [3]; NIH-3T3 cells", "result": "able to induce foci"}, {"measurement": "effect on foci in co-transformation with activated Ras", "setting": "NIH-3T3 cells [3]; co-transformation with activated Ras, titrations", "result": "synergizes with activated Ras"}]}]}
